Patent US20100136030A1 (published 2010)
Positions count from the first letter of the chain named. Blank lines part the entries; values can stand above or below the molecule they belong to.

Columns and labels:
[1] = target: human OX40 receptor (CD134), full length, on the cell surface (human) (UniProt P43489); assay: cell-based or functional assay
[2] = target: T1, murine OX40 (form not stated) (mouse, UniProt P47741 20-211, limits assumed); assay: not described (observation cited in Example 8)
T1 sequence (looked up): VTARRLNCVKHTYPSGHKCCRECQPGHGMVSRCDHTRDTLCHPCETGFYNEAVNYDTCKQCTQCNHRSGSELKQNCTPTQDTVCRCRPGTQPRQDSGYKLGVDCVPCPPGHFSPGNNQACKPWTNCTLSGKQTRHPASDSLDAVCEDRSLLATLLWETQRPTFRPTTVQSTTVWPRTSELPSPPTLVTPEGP

[3] = target: T2, human OX40 (form used in the assay not stated) (human, UniProt P43489 29-214, limits assumed); assay: OX40 binding titration with OD readout (assay format and form of OX40 not described); x axis 'Log concentration, µg/ml Fab'
T2 sequence (looked up): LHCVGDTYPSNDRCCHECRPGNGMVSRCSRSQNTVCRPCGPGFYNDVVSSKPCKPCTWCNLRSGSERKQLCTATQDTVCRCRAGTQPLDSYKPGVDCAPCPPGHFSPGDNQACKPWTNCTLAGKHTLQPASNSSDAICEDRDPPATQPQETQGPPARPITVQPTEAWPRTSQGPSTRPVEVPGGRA

[4] = target: T2, human OX40 (form used in the assay not …); assay: Biacore, format not described

Molecule: OX40 ligand (OX40L) on transfected mouse L fibroblasts
- CMP Mean (n: 3), proliferation, Th17 cells + OX40L L-cells [1]: 66000 CPM
- IFN-γ Conc (pg/ml), Th1 cells + OX40L L-cells [1]: 33000 pg/mL
- IL2 (pg/ml), OX40-Hut-78 + OX40L-L-cells, no antibody [1]: 138 pg/mL
- IL13 (pg/ml), OX40-Hut-78 + OX40L-L-cells, no antibody [1]: 620 pg/mL
- IL-17 Conc (pg/ml), TH-17, CD4+ cells/OX40L L-cells [1]: 2260 pg/mL
- Survivin expression (%), Th17 cells + OX40L L-cells [1]: 49%
- TH17 Survival (%), Th17 + OX40L-L-cells [1]: 39.2%
- Th1 Survival (%), naïve CD4+ T-cells + OX40L L-cells [1]: 65.9%
- Th17 proliferation, fold against culture without OX40L costimulation [1]: 4 fold
- Th-17 Survival (%), Th17 cells + OX40L L-cells [1]: 84.3%

B1: humanized anti-OX40 antibody A10(TH)hu336F (antibody, V domains shown)
VH: QVQLVQSGAEVKKPGASVKVSCKASGYTFTSYWMHWVRQAPGQGLEWMGEIHPKSGNSNYNEKFKGRVTMTRDTSTSTVYMELSSLRSEDTAVYYCARGPEYSNFWFAYWGQGTLVTVSS
VL: DIVLTQSPTSLAVSLGQRATISCKASQTVDYDGDSYMHWYQQKPGQPPKLLIYAASNLESGVPDRFSGSGSGTDFTLTISSLQAEDVAVYYCHQSNEDPWTFGQGTKVEIK
notes: also called humanized clone A10(TH)hu336F; 'humanized' A10 molecule
- binding result [2]: no binding
- EC50 (read off the curve) [3]: ~9 ng/mL

B3: humanized A10 whole antibody C (A10 LC (TH) hu 336 / A10 L70) (antibody, V domains shown)
VH: B1 VH with M70L
VL: B1 VL with L4M, T9D, Q17E, S22N
- Kd [4]: 1.44 nM
- koff [4]: 0.000151 s⁻¹
- kon [4]: 116000 M⁻¹ s⁻¹

B4: humanized A10 whole antibody E (A10 LC (SN) / A10 humanized) (antibody, V domains shown)
VH: B1 VH
VL: B1 VL with L4M, T9D, Q17E, S22N, T28S, H38N
- Kd [4]: 1.25 nM
- koff [4]: 0.000191 s⁻¹
- kon [4]: 151000 M⁻¹ s⁻¹

B7: humanized A10 whole antibody A (A10 LC (SH) / A10 L70) (antibody, V domains shown)
VH: B1 VH with M70L
VL: B1 VL with L4M, T9D, Q17E, S22N, T28S
- Kd [4]: 1.38 nM
- koff [4]: 0.000179 s⁻¹
- kon [4]: 131000 M⁻¹ s⁻¹

The remaining molecules from weak to strong by Kd [4], led by results:

- Kd [4]: 1.21 nM
- koff [4]: 0.00017 s⁻¹
- kon [4]: 140000 M⁻¹ s⁻¹
B5: humanized A10 whole antibody D (A10 LC (SH) / A10 humanized) (antibody, V domains shown)
VH: B1 VH
VL: B1 VL with L4M, T9D, Q17E, S22N, T28S
notes: also called A10-D; A10 D

- Kd [4]: 1.12 nM
- koff [4]: 0.000158 s⁻¹
- kon [4]: 141000 M⁻¹ s⁻¹
B2: humanized A10 whole antibody F (A10 LC (TH) hu 336 / A10 humanized) (antibody, V domains shown)
VH: B1 VH
VL: B1 VL
notes: also called A10-F; humanized variant A10-F

- Kd [4]: 0.94 nM
- koff [4]: 0.000156 s⁻¹
- kon [4]: 170000 M⁻¹ s⁻¹
B6: humanized A10 whole antibody B (A10 LC (SN) / A10 L70) (antibody, V domains shown)
VH: B1 VH with M70L
VL: B1 VL with L4M, T9D, Q17E, S22N, T28S, H38N
